Results from patent US20250129140A1, “ANTI-HCMV ANTIBODIES AND ANTIGEN-BINDING FRAGMENTS THEREOF” (ICAHN SCHOOL OF MEDICINE AT MOUNT SINAI, priority 2021, published 2025).

B1: 9A12: anti-HCMV gH/gL monoclonal antibody, fusion 2; VH SEQ ID NO:59, VL SEQ ID NO:60; chimeric and fully human IgG1 versions (antibody, V domains shown)
VH: EVQLVESGGVLVQPGGSLRLSCAASGFTFSSHEMNWVRQAPGKGLEWISYISSTGSTIYDADSVKGRFTISRDNAKNSLYLQMNSLRAEDTAVYYCARSSGWYRNYSYGMDVWGQGTTVTVSS
VL: DIQMAQSPSSLSASVGDRVTITCRASQGIYNYLAWFQQKPGKAPKSLIYAASSLQTGVPSKFSGSGSGTDFTLTISNLQPEDFATYYCQQYNSFPRTFGQGTKVEIK
modifications: IgG1 constant regions
notes: anti-HCMV gH/gL monoclonal antibody, fusion 2; chimeric and fully human IgG1 versions
B2: 13G1: anti-HCMV gH/gL monoclonal antibody, fusion 3; VH SEQ ID NO:38, VL SEQ ID NO:39; chimeric and fully human IgG1 versions (antibody, V domains shown)
VH: QVTLKESGPVLVKPTETLTLTCTVSGFSLYNARMGVTWIRQPPGKALEWLAHIFSNDERSYTSSLKNRLTISKDTSKSQVVLTMTNMDPVDTATYYCARIDYSNYIGNWFDPWGQGTLVTVSS
VL: DIQMTQSPSSLSASVGDRVTITCRASQSISNYLNWYQQKPGKAPKLLIYAASSLQGGVPSRFSGSGSGTDFTLTISSLQPEDFTTYYCQQSYSTPFTFGGGTKVEIK
modifications: IgG1 constant regions
notes: anti-HCMV gH/gL monoclonal antibody, fusion 3; chimeric and fully human IgG1 versions
B3: 14E1 (antibody, V domains shown)
VH: QVQLVQSGAEVKKPGASVKVSCKASGYTFTSYSISWVRQAPGQGLEWMGWINTYNGNTNYAQRVQARVTMTTDTSTSTAYMELRSLRSDDTAVYYCARDHGFFFDYWGQGNLVTVSS
VL: DIQLTQSPSFLSASVGDRVTITCWASQGISSYLAWYQQKPGKAPKLLIYAASTLQSGVPSRFSGSGSGTEFTLTISSLQPEDFATYYCQQLNSYPYTFGQGTQLEIK

Assays:
gH/gL/gO trimer = biological target: T1, gH/gL/gO trimer (Human cytomegalovirus, UniProt F5HCH8+Q6SW67, DEL177-177/E103D/E61Q/G77R); assay: Binding to 293 Expi cells transfected with gH/gL/gO; details: 3 days post transfection
T1 construct: expressed in transfected cells; host or cells: 293 Expi (Expi293F) cells
Method: (§1) gH mutants were cloned into pcDNA 3.1 and co-transfected with gL (1:1 ratio, 6 μg plasmid total) with lipofectamine 2000 (Thermo Fisher, #11668019) into 293Expi cells (7.5×10^6). Cells were harvested 3 days post transfection and fixed before being incubated with α-gH antibodies (2 μg/mL) for 1 hr at RT. Cells were washed and then incubated in anti-mouse AF647 conjugated secondary (1:1000) in order to quantify binding. Transfection efficiency was determined using pMAX eGFP plasmid which was spiked in at 0.1 μg per well.
(§2) To examine this further, 293 Expi cells were transfected with wildtype gH, wildtype gL, cotransfected with gH and gL (gH+gL), transfected with a single plasmid expressing both gH and gL (gH/gL) or co-transfected a variety of gH mutants and gL. Three days post transfection the cells were harvested and stained with unlabeled primary at 0.5 μg/mL using the antibodies indicated. Transfection efficiency was determined by measuring GFP expression on day 3 and binding was determined by percent Alexa Fluor 647 positive cells using a conjugated secondary. […] The binding profile for 1G9 is most similar to 10F8. Although the ratios of gH, gL and gO plasmid were 1:1:1 it is not certain how efficiently the trimer was assembled following transfection. […]

HCMV AD169R = assay: Neutralization by fully human versus chimeric antibody versions; type: cell-based, Human cytomegalovirus; details: human IgG1 Fc versus mouse Fc
Method: Increasing concentrations of monoclonal antibodies (0.016-50 μg/mL) were incubated with AD169R (MOI 0.2) to assess neutralizing capacity. Percent infection was quantified using GFP expression at 18 hpi and normalized based on infection with virus alone (no antibody). CMV hyperimmune globulin (CytoGam®) was used as a control (trace on the upper right in FIGS. 8A, 8B, 8C, and 8D). FIG. 8A. […] FIG. 8B. Fully human (hu, comprising human variable and human constant regions) and chimeric (ms, comprising human variable and murine constant regions) versions of 9A12. FIG. 8C. Fully human (hu, comprising human variable and human constant regions) and chimeric (ms, comprising human variable and murine constant regions) versions of 13G1. FIG. 8D. Fully human (hu, comprising human variable and human constant regions) and chimeric (ms, comprising human variable and murine constant regions) versions of 14E1.
For this, the mouse Fc region of these mAbs was replaced with the human IgG1 Fc region.

[1] = tested on: CMV TB40/E infected fibroblasts; assay: SCID mouse gelfoam implant model of CMV proliferation; type: in vivo, SCID mice; details: fully human mAbs 4 or 18 mg/kg, ganciclovir 50 mg/kg; i.p. every three days; day ten; versus isotype control
Method: At day ten post-implantation, the cells were released from the gelfoam and DNA extracted from the cells was subjected to qPCR for the HCMV UL123 and β-actin genes. The relative CMV levels cells were determined from Ct values of qPCR analysis (in triplicate) from cells collected from three mice/treatment. Statistical tests were performed using ordinary one-way ANOVA with comparisons to isotype treated cells as a control and a Dunnett's post-test; **, p<0.01; ***, p<0.001; ****, p<0.0001.
The gelfoam was implanted subcutaneously in three mice per group. […] Treatments were administrated every three days for nine days. At day ten post-implant, the gelfoam was removed and cells were released from the gel foam by collagenase treatment. The total DNA was harvest from the cells, quantified, and subjected to qPCR for UL123 (CMV gene) and b-actin (housekeeping geen) using SYBR green to evaluate virus proliferation. The qPCR analysis was performed in triplicate from three animals to determine the Ct values for UL123 and b-actin to calculate the relative levels of CMV DNA from the gelfoam samples.

gH monomer = biological target: T2, gH monomer (Human cytomegalovirus, UniProt Q6SW67); assay: Binding to 293 Expi cells transfected with gH alone; details: 3 days post transfection
T2 construct: expressed in transfected cells; host or cells: 293 Expi (Expi293F) cells
Method: as §1, §2

HCMV = assay: Virus neutralization, summary statements across cell types and strains; type: cell-based, Human cytomegalovirus; details: MRC5; TB40/E, AD169R, TR, Towne
Method: AD169R^BADrUL131, TB40E, TR, or Towne was pre-incubated with monoclonal antibodies (starting dilution of 100 μg/mL antibody) was diluted using 5 fold dilutions to achieve a final range of 50-0.016 μg/mL antibody after addition to 25 μL of media containing virus; final MOI 0.2) and incubated at 4° C. for 1 hr before the inoculum was added to the appropriate cell types (ARPE-19, HTR-svNeo, MRC5, or NHDF cells at 10,000 cells per well) for 2 hrs at 37° C., 5% CO2. Following infection, the inoculum was removed and replaced with 100 μL complete DMEM/F-12 media before an overnight incubation at 37° C., 5% CO2.
Cells were fixed using 4% paraformaldehyde (PFA) for 20 minutes at room temp. Cells were then permeabilized using 0.3% Triton X-100 (Thermo Fisher, #HFH10) in PBS and stained with an affinity-purified, polyclonal rabbit anti-IE1-1/2 (0.7 ng/ml) primary and an anti-rabbit Alexa Fluor 647 (1:1000) secondary. To quantify total cells per well, Hoechst (Molecular Probes, #H3570) was diluted 1:100,000 in PBS and incubated with cells for 20 minutes at room temp. Virus neutralization was quantified using a Celigo cytometer (Nexelcom Bioscience). Percent infection was calculated using ((#IE1-1+)/(#Hoechst+))*100 events per well and normalized to the percent infection when an irrelevant, non-neutralizing, or no antibody was used.
The student's unpaired, two tailed t tests were performed using the GraphPad Prism software (La Jolla, CA). An asterisk identifies statistical significance of P<0.05 or less.

[2] = tested on: recombinant HCMV pentamer (strain VR1814) consisting of gH, gL, UL128, UL130 and UL131A; assay: Biolayer interferometry (Octet RED) KD determination; type: binding, Human cytomegalovirus; details: for kon: association 3 minutes; for kdis: dissociation 3 minutes in PBS
Method: Biolayer interferometry assays were performed using the Octet RED instrument (ForteBio, Inc.) to determine the association (kon) and dissociation (kdis) constants for each antibody. Purified monoclonal antibody was loaded onto the anti-mouse Fc IgG capture (AMC) biosensors using 5-fold dilutions (50-0.016 μg/mL in PBS) for 10 minutes. To determine the kon, the sensors were exposed to the recombinant HCMV pentamer (strain VR1814) consisting of gH, gL, UL128, UL130 and UL131A (Native Antigen, CMV-PENT-100) at a constant concentration of 100 μg/mL in PBS for 3 minutes. To determine the kdis, dissociation was measured over the course of 3 minutes while the sensors were in PBS buffer. KD values were calculated as a ratio of […].
To examine this further, 293 Expi cells were transfected with wildtype gH, wildtype gL, cotransfected with gH and gL (gH+gL), transfected with a single plasmid expressing both gH and gL (gH/gL) or co-transfected a variety of gH mutants and gL. Three days post transfection the cells were harvested and stained with unlabeled primary at 0.5 μg/mL using the antibodies indicated. Transfection efficiency was determined by measuring GFP expression on day 3 and binding was determined by percent Alexa Fluor 647 positive cells using a conjugated secondary. […] The binding profile for 1G9 is most similar to 10F8. Although the ratios of gH, gL and gO plasmid were 1:1:1 it is not certain how efficiently the trimer was assembled following transfection. […] To discern minute differences in antibody binding biolayer interferometry was used, immobilizing each of the purified monoclonal antibodies (50-0.016 μg/mL) onto anti-mouse IgG Fc capture (AMC) biosensors and exposing the sensors to recombinant pentamer (100 μg/mL).

HCMV gB (U373-gB cells) = assay: Flow cytometry binding to U373-gB cells; design: species or system Human cytomegalovirus
HCMV BADrUL131 = assay: Dissemination / focus forming unit (FFU) assay in ARPE-19 cells; type: cell-based, Human cytomegalovirus
Method: ARPE-19 or NHDF cells were plates at 50,000 cells per well in a 24 well and infected the following day. TB40/E (MOI 0.01) and AD169RBAD^rUL131 (MOI 0.1 & 0.01) was incubated with either 10 μg/mL or 0.5 μg/mL of antibody one hour prior to addition to cells. Following a 2 hr incubation at 37° C., 5% CO2 the inoculum was removed, and cells were overlaid with 1% low melt temperature sea agarose overlay. The overlay was allowed to solidify at room temp and then 500 μL of media was added before cells were put back into the incubator. At 7 days post infection, the cells were scanned using the brightfield and GFP filters and then placed back into the tissue culture incubator until the assay was stopped by fixation and immunostaining on day 10 or 14 as indicated.
Next, a focus forming unit (FFU) assay was optimized to examine the antibodies ability to block viral replication and dissemination over multiple infection cycles. […] Once the assay was terminated at Day 10 or 14, the cells were fixed and performed immunostaining to quantify total cells by Hoechst or infection using IE1-1 as readout for infection. […] The number of FFUs was quantified per well, using 10,000 μm^2 as a cutoff for plaque area. […] Images were taken on day 7 post infection and the relative number of plaques per well was calculated compared to wells that received an irrelevant control antibody M2E10. […]

Molecule	binding to cells transfected with gH/gL/gO (gH/gL/gO trimer)	IC50 / neutralizing capacity of fully human version compared to chimeric counterpart (HCMV AD169R)	CMV DNA levels (UL123 relative to β-actin, qPCR) [1]	binding to cells transfected with gH alone (gH monomer)	neutralization of infection across all strains (HCMV)	kon [2]	kdis [2]	binding to the surface of U373-gB cells (HCMV gB (U373-gB cells); live cells, surface)	binding to U373-gB cells fixed and permeabilized (HCMV gB (U373-gB cells); permeabilized cells)	limiting viral dissemination at low concentration (HCMV BADrUL131)	rank of binding constant within the panel ([2]; recombinant pentamer)
B1	bound	remained unchanged	limit CMV infection and proliferation	bound	consistently neutralized infection	24800 M⁻¹ s⁻¹	8.6e-05 s⁻¹	–	–	–	–
B2	–	improved IC50 values	limit CMV infection and proliferation	–	consistently neutralized infection	12900 M⁻¹ s⁻¹	6.51e-05 s⁻¹	bind non-specifically	does not significantly bind	–	–
B3	–	improved IC50 values	–	–	–	24400 M⁻¹ s⁻¹	0.00158 s⁻¹	–	–	effective	weakest
